Consider four molecules from US20220162320A1 (published 2022).

Assay [1] has as its target T1, HLA-PEPTIDE target G2: HLA-A*01:01_…, recombinant soluble complex (human, enzymatically biotinylated (BirA)). As to the kind of experiment: BLI.
Assay [2] addresses T2, CD3 (reagent of the affinity experiments of Example 18) (UniProt P07766 23-126).
T2 chain: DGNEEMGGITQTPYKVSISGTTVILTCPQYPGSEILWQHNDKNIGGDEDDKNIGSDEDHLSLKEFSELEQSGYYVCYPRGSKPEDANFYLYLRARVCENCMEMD
As to the kind of experiment: BLI.

The target of assay [3] is T1, HLA-PEPTIDE target G2: HLA-A*01:01_…, …. Description: BLI. The source holds these as a separate data set.
The target of assay [4] is T2, CD3 (reagent of the affinity …). As to the kind of experiment: BLI.
Assay [5] has as its target T1, HLA-PEPTIDE target G2: HLA-A*01:01_…, …. Description: BLI; avid; apparent KD (bivalent).
Assay [6] deals with T2, CD3 (reagent of the affinity …). Description: BLI; avid; apparent KD (bivalent).
Assay [7] has as its target T1, HLA-PEPTIDE target G2: HLA-A*01:01_…, …. As to the kind of experiment: BLI. This is another data set of the same source.
Assay [8] has as its target T2, CD3 (reagent of the affinity …). As to the kind of experiment: BLI.
The target is the same in assay [9]. As to the kind of experiment: BLI.
Assay [10] has the same target. As to the kind of experiment: BLI; IgG analyte, apparent KD (bivalent), avid.

B1: 3-G2(1H11)-hOKT3 (bispecific antibody)
chain: not shown
heavy: QVQLVQSGAEVKKPGASVKVSCKASGYTFTRYTMHWVRQAPGQGLEWMGYINPSRGYTNYNQKFKDRVTLTTDKSSSTAYMELSSLRSEDTAVYYCARYYDDHYSLDYWGQGTLVTVSSASTKGPSVFPLAPSSKSTSGGTAALGCLVKDYFPEPVTVSWNSGALTSGVHTFPAVLQSSGLYSLSSVVTVPSSSLGTQTYICNVNHKPSNTKVDKRVEPKSCDKTHTCPPCPAPELLGGPSVFLFPPKPKDTLMISRTPEVTCVVVDVSHEDPEVKFNWYVDGVEVHNAKTKPREEQYQSTYRVVSVLTVLHQDWLNGKEYKCKVSNKALPAPIEKTISKAKGQPREPQVCTLPPSREEMTKNQVSLSCAVKGFYPSDIAVEWESNGQPENNYKTTPPVLDSDGSFFLVSKLTVDKSRWQQGNVFSCSVMHEALHNRFTQKSLSLSPGK
light: DIQMTQSPSSLSASVGDRVTITCSASSSVSYMNWYQQKPGKAPKRLIYDTSKLASGVPSRFSGSGSGTDFTLTISSLQPEDFATYYCQQWSSNPFTFGQGTKLEIKRTVAAPSVFIFPPSDEQLKSGTASVVCLLNNFYPREAKVQWKVDNALQSGNSQESVTEQDSKDSTYSLSSTLTLSKADYEKHKVYACEVTHQGLSSPVTKSFNRGEC
Regarding B1, the figures for the Kd in assay [1] and in assay [2] were 421 nM and 168 nM, respectively.

B2: 6-G2(1H11)-αCD3 (bispecific antibody)
heavy: not shown
light: QAVVTQEPSLTVSPGGTVTLTCGSSTGAVTTSNYANWVQQKPGKSPRGLIGGTNKRAPGVPARFSGSLLGGKAALTISGAQPEDEADYYCALWYSNHWVFGGGTKLTVLRTVAAPSVFIFPPSDEQLKSGTASVVCLLNNFYPREAKVQWKVDNALQSGNSQESVTEQDSKDSTYSLSSTLTLSKADYEKHKVYACEVTHQGLSSPVTKSFNRGEC
Turning to B2, the Kd in [3] worked out at 215 nM; in assay [4], 5.95 nM; in [5], 4.53 nM; in assay [6], 0.828 nM.

B3: 5-G2(1H11)-αCD3 (bispecific antibody)
chain: not shown
heavy: QVQLVQSGAEVKKPGASVKVSCKASGYTFTNYYMHWVRQAPGQGLEWMGMINPSGGGTSYAQKFQGRVTMTRDTSTSTVYMELSSLRSEDTAVYYCARGNPWELRLDYWGQGTLVTVSSGGGGSGGGGSGGGGSGGGGSDIQMTQSPSSLSASVGDRVTITCQASQDISNYLNWYQQKPGKAPKLLIYAASSLQSGVPSRFSGSGSGTDFTLTISSLQPEDFATYYCQQYYSYPFTFGPGTKVDIKGGGGSGGGGSEVQLVESGGGLVQPGGSLRLSCAASGFTFSTYAMNWVRQAPGKGLEWVGRIRSKYNNYATYYADSVKGRFTISRDDSKNTLYLQMNSLRAEDTAVYYCVRHGNFGDSYVSWFAYWGQGTLVTVSSASTKGPSVFPLAPSSKSTSGGTAALGCLVKDYFPEPVTVSWNSGALTSGVHTFPAVLQSSGLYSLSSVVTVPSSSLGTQTYICNVNHKPSNTKVDKRVEPKSCDKTHTCPPCPAPELLGGPSVFLFPPKPKDTLMISRTPEVTCVVVDVSHEDPEVKFNWYVDGVEVHNAKTKPREEQYQSTYRVVSVLTVLHQDWLNGKEYKCKVSNKALPAPIEKTISKAKGQPREPQVCTLPPSREEMTKNQVSLSCAVKGFYPSDIAVEWESNGQPENNYKTTPPVLDSDGSFFLVSKLTVDKSRWQQGNVFSCSVMHEALHNRFTQKSLSLSPGK
light: QAVVTQEPSLTVSPGGTVTLTCGSSTGAVTTSNYANWVQQKPGKSPRGLIGGTNKRAPGVPARFSGSLLGGKAALTISGAQPEDEADYYCALWYSNHWVFGGGTKLTVLRTVAAPSVFIFPPSDEQLKSGTASVVCLLNNFYPREAKVQWKVDNALQSGNSQESVTEQDSKDSTYSLSSTLTLSKADYEKHKVYACEVTHQGLSSPVTKSFNRGEC
As for B3, the Kd in assay [7] worked out at 28.8 nM; in [8], 20 nM.

B4: hOKT3 IgG (antibody, V domains shown)
VH: QVQLVQSGAEVKKPGASVKVSCKASGYTFTRYTMHWVRQAPGQGLEWMGYINPSRGYTNYNQKFKDRVTLTTDKSSSTAYMELSSLRSEDTAVYYCARYYDDHYSLDYWGQGTLVTVSS
VL: DIQMTQSPSSLSASVGDRVTITCSASSSVSYMNWYQQKPGKAPKRLIYDTSKLASGVPSRFSGSGSGTDFTLTISSLQPEDFATYYCQQWSSNPFTFGQGTKLEIKR
Turning to B4, the figures for the Kd in [9] and in assay [10] were 268 nM and 8.44 nM, respectively.
